Laboratory results reported in patent publication US20010010919A1 (published 2001).

Target: T1, orphanin FQ receptor (rat, UniProt P35370 1-367)
T1 chain: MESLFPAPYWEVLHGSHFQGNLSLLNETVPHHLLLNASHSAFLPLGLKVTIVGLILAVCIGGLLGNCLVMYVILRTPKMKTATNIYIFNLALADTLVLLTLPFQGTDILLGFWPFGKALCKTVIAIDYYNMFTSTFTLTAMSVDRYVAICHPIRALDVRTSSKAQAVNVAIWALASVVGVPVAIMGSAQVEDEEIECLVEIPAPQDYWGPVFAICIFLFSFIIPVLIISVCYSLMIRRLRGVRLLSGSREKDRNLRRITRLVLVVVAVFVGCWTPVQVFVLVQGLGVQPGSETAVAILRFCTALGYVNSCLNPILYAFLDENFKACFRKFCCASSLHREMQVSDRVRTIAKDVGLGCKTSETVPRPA
Assay: cell-based or functional assay

## FGGFTGARKSARKYANQ [Y14-orphanin FQ]
  EC50, cAMP inhibition assay: 1 nM
